Data: patent US20250320288A1, “METHOD OF TREATING VITILIGO WITH INTERFERON-GAMMA ANTIBODY” (Elixiron Immunotherapeutics (Hong Kong), priority 2022, published 2025)
Entries after “also recorded” stand apart in the source; their conditions may differ.

Key:
[1] = 4-week repeated intravenous infusion GLP toxicology of EI-001; format: in vivo
Description: Materials and methods: A total of forty Cynomolgus monkeys (20 females and 20 males) were assigned into 4 groups with 5 animals/gender/group and given EI-001 (2A6Q) (10, 30 and 100 mg/kg) or vehicle (Formulation Buffer) in a volume of 10 mL/kg via 30-min intravenous infusion, once weekly for a total of 5 doses, followed by a 6-week recovery phase. All animals were scheduled to be necropsied at the end of main phase (on Day 30) and at the end of recovery phase (on Day 72). During the study, the following parameters were evaluated: clinical observations, ophthalmology, body weight, food consumption, body temperature (rectal temperature), clinical pathology (hematology, coagulation, plasma chemistry, lymphocyte immunophenotype and urinalysis), gross pathology, organ weight and histopathology. toxicokinetics, immunogenicity, local irritation assessment, cardiovascular (ECG, body surface temperature, blood pressure), respiratory and central nervous system safety pharmacology assessments were conducted concurrently. […] The immunogenicity samples were collected on pre-dose on Days 1, 15, 22, and Days 57, 71.

[2] = tested on: melanocytes; assay: Melanocyte apoptosis, Annexin V / 7AAD flow cytometry; format: cell-based, human; conditions: 2A6Q 10 μg/mL
Description: Materials and methods: Melanocyte cell apoptosis was detected with Annexin V (BD, 550474) and 7AAD (1 mg/mL, Sigma A9400-1 MG). The cells were detached and resuspended with […] binding buffer (BD, 556454) containing Annexin V and 7AAD for 15 min at room temperature in the dark. Before analysis, cells were added to a […] binding buffer and immediately analyzed a on a flow cytometer (Verse BD).

[3] = target: T1, recombinant human IFN-γ (Homo sapiens, UniProt P01579); assay: EI-001 neutralization of IFN-γ, restoration of melanocyte melanogenesis; format: cell-based; conditions: addition of 2A6Q
T1 sequence (P01579 24-161 limits assumed): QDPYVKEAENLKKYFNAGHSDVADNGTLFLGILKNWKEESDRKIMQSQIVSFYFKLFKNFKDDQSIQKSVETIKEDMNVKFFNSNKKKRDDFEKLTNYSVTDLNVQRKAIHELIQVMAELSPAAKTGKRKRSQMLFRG
Description: Materials and methods: To examine the dose-dependency of IFN-γ inhibition of HEMn-DP cell melanogenesis, HEMn-DP cells were seeded into a 24-well plate at a concentration of 200,000 cells/well in 1 mL assay medium (M254 supplemented with 1× HMGS, 10 ng/mL PMA plus Penicillin-Streptomycin) with serial dilutions of IFN-γ, followed by incubation at 37° C. for 7 days. The cell assay medium was replaced by fresh medium with serially titrated concentrations of IFN-γ on day 3 and day 5. On day 7, cells were first washed with PBS twice, lysed in 250 μL of 1N NaOH/10% DMSO solution, then incubated at 80° C. for 1 hr. After lysis, each lysate was transfer to 96 well plate, and absorbance of melanin was then measured at […]. The relative melanin quantity was normalized with cell viability of each sample which was measured by CellTiter-Glo kit, and data were analyzed using nonlinear regression curve fit using GraphPad Prism7. To determine the potency of EI-001, HEMn-DP cells were seeded as previously described, and IFN-γ pre-incubated with indicated amounts of EI-001 for 25 min in 1 mL of assay medium. After incubation, the mixture was added to each well (final IFN-γ concentration is 20 ng/ml). Melanin content of melanocytes was determined as previously described.

[4] = tested on: CXCR3 expression on CD8+ T cells; assay: CXCR3 expression on CD8+ T cells of activated PBMCs (flow cytometry); format: cell-based, human; conditions: 3 individual donors
Description: Materials and methods: PBMCs from healthy adult donors were isolated from whole blood using Ficoll-Paque density gradient centrifugation. PBMCs were cultured in a humidified 37° C. incubator for 24 hours in RPMI-1640 culture medium supplemented with 5% human serum, and standard antibiotics, 2-ME and HEPES. PBMCs were then seeded at 1×10^6 cells/well with 1 mL fresh culture medium/well in a 24-well plate and stimulated by mixing cells with human T cell TransAct (1:200). Antibodies indicated in the Results were then added and mixed well. After 2 days of culture, PBMCs were collected, washed with PBS three times, re-suspended in culture medium and re-cultured with indicated antibodies for an additional 2 days.
PBMCs were treated as required (see above) and then harvested for flow cytometry antibody staining, using anti-human CD4, anti-human CD8, anti-human CD56 and anti-human CXCR3 antibodies for 30 minutes on ice in the dark. PBMCs were then washed twice with FACS buffer and the expression of CXCR3 determined by flow cytometry using an Attune NxT flow cytometry. Flow cytometry data analysis was performed using FlowJo software.

[5] = tested on: melanocytes; assay: Lipid peroxidation in melanocytes (BODIPY 581/591 C11); format: cell-based, human; conditions: melanocytes
Description: For lipid peroxidation examination, melanocyte cells were seeded in a 6-well plate and treated with IFN-γ the next day. Melanocytes were washed with PBS and incubated with Hanks balanced salt solution (HBSS, Gibco) containing 5 μM BODIPY 581/591 C11 (Invitrogen, D3861) and incubated for 15 minutes at 37° C. in a tissue culture incubator. The cells were resuspended with fresh HBSS and examined with flow cytometry; the data were analyzed with FlowJo.

[6] = tested on: melanocytes; assay: Intracellular ROS in melanocytes (CM-H2DCFDA); format: cell-based, human; conditions: melanocytes
Description: Materials and methods: For intracellular ROS measurement, melanocytes were washed with PBS and incubated with 20 μM CM-H2DCFDA (Invitrogen) for 30 min at 37° C. in the dark. The cells were resuspended with PBS and examined with flow cytometry at an excitation wavelength of 488 nm and an emission wavelength of 530 nm; the data were analyzed with FlowJo.

B1: EI-001: human monoclonal anti-IFN-γ neutralizing antibody; VH SEQ ID NO: 165, VL SEQ ID NO: 113; N76Q removes VH glycosylation site (antibody, listed as Homo sapiens, V domains shown)
VH: EVQLVESGGGLVKPGDSLTVSCVASGFTFSNYFIHWVRQAPGKGLEWVATISGRTKYMFYSDSLRGRFTVSRDNAQNSVYLHMSSLRGEDTALYYCVRGYDHSDSNSAADLLHWGRGTLVTVSS
VL: NFMLTQPLSVSGYPGKTIVISCVRSSGSVASHYVQWFQQRPGSAPAMVIYEDSHRPSGIPDRFSGSVDASSNSASLTISGLKTEDEADYFCQSYYGNNQVLFGGGTKLTVL
modifications: Recombinant variant antibody sequence
notes: human monoclonal anti-IFN-γ neutralizing antibody; N76Q removes VH glycosylation site
survival of treated animals ([1]; 10, 30 and 100 mg/kg once weekly): survived to their scheduled necropsy
tolerability after repeated intravenous infusion for 4 weeks ([1]; 10, 30 and 100 mg/kg once weekly, 5 doses): well-tolerated
mortality rates or susceptibility to infections among the treated monkeys ([1]; compared to prior NI-0501 toxicology studies): did not increase
drug adverse events in in vivo toxicology ([1]; cynomolgus monkey, in vivo): does not cause any significant drug adverse events
observable symptoms of infection ([1]; cynomolgus monkey, in vivo): did not induce
only detected changes related to administration ([1]; cynomolgus monkey, in vivo): seen on a microscopic level
reversal of IFN-γ induced early phase apoptosis [2]: managed to reverse the apoptosis; also recorded: reverses
rescue of IFN-γ induced decrease in melanin content [3]: can be rescued; also recorded: reverses
IC50 of EI-001 to inhibit CXCR3 expression on CD8+ T cells [4]: 1.029 to 6.941 µg/mL
reversal of IFN-γ induced lipid peroxidation [5]: reverses
reversal of IFN-γ induced ROS / cellular oxidative stress [6]: reverses the ROS
